Numbered stars: 1 amine (or outer) side, 2 acyl side, 3 side chain; on linkers, the order of the positions; unused ones are H or OH. Square brackets hold non-standard residues; d marks the D form. Peptide text beside a SMILES is read from it. * marks the point of attachment. Dolaproine = CO[C@@H]([C@@H]1CCCN1)[C@@H](C)C(=O)O; Propanoyl(3-maleimido) = O=C1C=CC(=O)N1CCC(=O)*; Dil = CC[C@H](C)[C@H](NC)[C@@H](CC(=O)O)OC; PABC = O=C(OCc1ccc(N[*:1])cc1)[*:2]; X1 = C[C@@H](N*)[C@@H](O)c1ccccc1; hSer(lactone) = O=C1OCC[C@@H]1N*; Cit = NC(=O)NCCC[C@H](N)C(=O)O; PEG4 = NCCOCCOCCOCCOCCC(=O)O; NMeV = CN[C@H](C(=O)O)C(C)C
Tests used:
[1] = Pharmacokinetic test (serum trastuzumab residual rate); assay type: in vivo; details: female BALB/c mouse, intravenous; 3 days vs 5 minutes after administration
From the text: After a prescribed time period, the blood was collected from the jugular vein or abdominal vein, and centrifuged to prepare a serum. The resulting serum was cryopreserved until the measurement.

[2] = Retention time in HPLC (index of hydrophilicity); assay type: physicochemical; details: BEH C18, 0.1% formic acid/acetonitrile gradient, 40° C.
Experimental: As an index of hydrophilicity of the Examples, the retention time (RT) in HPLC analysis was measured, and compared.
Device: LCMS2020 system Shimadzu Corporation
Column: Acquity UPLC (registered trademark) BEH C18 (2.1×50 mm, 1.7 μm)_Waters
Eluent: Solution A: 0.1% aqueous solution of formic acid, Solution B: 0.1% solution of formic acid in acetonitrile

human liver lysosome = test: Metabolism test using human liver lysosomal fraction; assay type: in vitro ADME; details: 37° C., 24 hours, released drug, LC-MS/MS
Experimental: To a reaction composition solution (X10 Catabolic Buffer (manufactured by SEKISUI-Xenotech, LLC., K5200))(60 μL) in which human liver lysosome (manufactured by SEKISUI-Xenotech, LLC., Cat No. H610.L 2.5 mg/mL)(corresponding to 0.125 mg of protein) was suspended and distilled water (manufactured by FUJIFILM Wako Pure Chemical Corporation, for HPLC)(10 μL) was added 1.2 μM test compound (antibody-drug conjugate produced in ADC Production examples)(25 μL) dissolved in PBS to prepare a reaction solution. After the reaction solution was incubated at 37° C. for 24 hours, “an antitumor drug molecule or an analog thereof, or a derivative thereof” released from the antibody-drug conjugate into the reaction solution was quantified by LC-MS/MS (high performance liquid chromatography/mass spectrometer system) under the following conditions. LC-MS/MS analysis conditions
(§1) LC: LC20 or LC30 HPLC system manufactured by Shimadzu Corporation
(§2) Column: Phenomenex Kinetex C18 (50×2.1 mm, 2.6 μm)
(§3) Column temperature: 40° C.
(§4) Mobile phase A: 0.1% aqueous solution of formic acid, Mobile phase B: 0.1% solution of formic acid in a mixture of 50% acetonitrile/methanol
(§5) Mode: Positive or Negative
(§6) The release rate (%) of drug was calculated by the following equation.

human liver Cathepsin B = biological target: T1, human liver Cathepsin B (Homo sapiens, UniProt P07858); test: Metabolism test using human liver Cathepsin B; assay type: in vitro ADME; details: 37° C., 24 hours, released drug, LC-MS/MS
T1 construct: human liver Cathepsin B (manufactured by Sigma-Aldrich Co. LLC, Cat No. C8571 25 μg/vial); purchased Sigma-Aldrich Co. LLC C8571; host or cells: human liver
Experimental: To human liver Cathepsin B (manufactured by Sigma-Aldrich Co. LLC, Cat No. C8571 25 μg/vial)(corresponding to 400 Unit/mL)(5 μL), X10 Catabolic Buffer (manufactured by SEKISUI-Xenotech, LLC., K5200)(10 μL), 2.5 mM Bovine Serum Albumin (manufactured by FUJIFILM Wako Pure Chemical Corporation, Cat No. 012-15093)(5 μL), and distilled water (manufactured by FUJIFILM Wako Pure Chemical Corporation, for HPLC)(55 μL) was added 1.2 μM test compound (antibody-drug conjugate prepared in ADC Production examples)(25 μL) dissolved in PBS to prepare a reaction solution. After the reaction solution was incubated at 37° C. for 24 hours, “an antitumor drug molecule or an analog thereof, or a derivative thereof” released from the antibody-drug conjugate into the reaction solution was quantified by LC-MS/MS (high performance liquid chromatography/mass spectrometer system) under the following conditions. LC-MS/MS analysis conditions
as §1, §2, §3, §4, §5, §6

CC[C@H](C)[C@@H]([C@@H](CC(=O)N1CCC[C@H]1[C@H](OC)[C@@H](C)C(=O)N[C@H](C)[C@@H](O)c1ccccc1)OC)N(C)C(=O)[C@@H](NC(=O)[C@H](C(C)C)N(C)C(=O)OCc1ccc(NC(=O)[C@H](CCCNC(N)=O)NC(=O)[C@@H](NC(=O)[C@H](CC(=O)N[C@H]2CCOC2=O)NC(=O)CCOCCOCCOCCOCCNC(=O)CCN2C(=O)C=CC2=O)C(C)C)cc1)C(C)C [Example 1] ({Propanoyl(3-maleimido)-PEG4}-D(hSer(lactone))V[Cit][PABC][NMeV]V[Dil][Dolaproine]-X1)
Serum trastuzumab residual rate after 3 days from administration (%) [1]: 35%
Retention time in HPLC measurement ([2]; Table 5 (MMAE-type precursors)): 1.12 min
Release rate (%) of drug from ADC (human liver lysosome): 68%
Release rate (%) of drug from ADC (human liver Cathepsin B): 71%

C=C1C[C@@H]2CC[C@@]34C[C@H]5O[C@H]6[C@@H](O3)[C@H]3O[C@H](CC[C@@H]3O[C@H]6[C@H]5O4)CC(=O)C[C@@H]3[C@@H](OC)[C@@H](C[C@H](O)CNC(=O)OCc4ccc(NC(=O)[C@H](CCCNC(N)=O)NC(=O)[C@@H](NC(=O)[C@H](CC(=O)N[C@H]5CCOC5=O)NC(=O)CN(C)CCNC(=O)CCOCCOCCOCCOCCNC(=O)[C@H](CNC(=O)CCP(=O)(O)O)N5C(=O)C=CC5=O)C(C)C)cc4)O[C@H]3C[C@H]3O[C@@H](CC[C@@H]1O2)C[C@@H](C)C3=C [Example 16]
Serum trastuzumab residual rate after 3 days from administration (%) [1]: 64%
Retention time in HPLC measurement ([2]; Table 6 (eribulin precursors)): 0.97 min
Release rate (%) of drug from ADC (human liver lysosome): 72%
Release rate (%) of drug from ADC (human liver Cathepsin B): 62%

C=C1C[C@@H]2CC[C@@]34C[C@H]5O[C@H]6[C@@H](O3)[C@H]3O[C@H](CC[C@@H]3O[C@H]6[C@H]5O4)CC(=O)C[C@@H]3[C@@H](OC)[C@@H](C[C@H](O)CNC(=O)OCc4ccc(NC(=O)[C@H](CCCNC(N)=O)NC(=O)[C@@H](NC(=O)[C@H](CC(=O)N[C@H]5CCOC5=O)NC(=O)[C@H](CCCCN(C)C)NC(=O)CCOCCOCCOCCOCCNC(=O)[C@H](CNC(=O)CCP(=O)(O)O)N5C(=O)C=CC5=O)C(C)C)cc4)O[C@H]3C[C@H]3O[C@@H](CC[C@@H]1O2)C[C@@H](C)C3=C [Example 18]
Serum trastuzumab residual rate after 3 days from administration (%) [1]: 73%
Retention time in HPLC measurement ([2]; Table 6 (eribulin precursors)): 0.96 min
Release rate (%) of drug from ADC (human liver lysosome): 75%
Release rate (%) of drug from ADC (human liver Cathepsin B): 64%

— patent US20250170267A1, “ANTIBODY-DRUG CONJUGATE PRECURSOR AND INTERMEDIATE FOR SYNTHESIS THEREOF” (UBE Corporation, priority 2022, published 2025)
